Measured values as given in patent publication US20120027782A1 (Bristol-Myers Squibb, published 2012).
Substitutions are numbered along the chain they refer to.

T1: human PTK7, full length, on the cell surface (human, UniProt Q13308 31-1070)
T1 sequence: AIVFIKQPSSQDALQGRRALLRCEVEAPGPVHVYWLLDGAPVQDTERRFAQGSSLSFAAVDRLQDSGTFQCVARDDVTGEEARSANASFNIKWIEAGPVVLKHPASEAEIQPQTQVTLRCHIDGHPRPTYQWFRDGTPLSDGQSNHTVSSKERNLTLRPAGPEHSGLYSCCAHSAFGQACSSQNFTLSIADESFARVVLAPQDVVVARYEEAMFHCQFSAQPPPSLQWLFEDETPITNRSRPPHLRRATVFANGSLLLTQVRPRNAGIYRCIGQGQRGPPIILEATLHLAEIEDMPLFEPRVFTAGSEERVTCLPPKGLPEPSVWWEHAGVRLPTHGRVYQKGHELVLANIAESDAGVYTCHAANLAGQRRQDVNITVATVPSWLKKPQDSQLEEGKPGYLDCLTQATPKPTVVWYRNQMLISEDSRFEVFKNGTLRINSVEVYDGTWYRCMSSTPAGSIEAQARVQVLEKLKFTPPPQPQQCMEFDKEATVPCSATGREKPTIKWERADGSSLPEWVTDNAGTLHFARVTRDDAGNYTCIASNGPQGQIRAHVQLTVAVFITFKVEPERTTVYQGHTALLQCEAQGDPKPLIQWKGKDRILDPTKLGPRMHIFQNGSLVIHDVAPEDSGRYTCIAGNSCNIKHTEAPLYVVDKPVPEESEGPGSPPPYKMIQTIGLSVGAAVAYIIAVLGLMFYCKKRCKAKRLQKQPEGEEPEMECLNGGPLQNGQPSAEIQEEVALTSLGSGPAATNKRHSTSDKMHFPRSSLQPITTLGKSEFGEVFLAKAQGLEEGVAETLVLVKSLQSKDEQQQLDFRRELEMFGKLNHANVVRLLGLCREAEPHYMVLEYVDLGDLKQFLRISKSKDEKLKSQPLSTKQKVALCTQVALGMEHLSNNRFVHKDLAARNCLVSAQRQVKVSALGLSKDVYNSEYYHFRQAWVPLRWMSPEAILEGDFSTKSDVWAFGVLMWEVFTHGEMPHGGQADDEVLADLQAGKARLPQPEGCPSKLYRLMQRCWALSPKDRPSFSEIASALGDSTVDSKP

T2: recombinant extracellular domain of PTK7 (human, UniProt Q13308 31-704)
T2 construct: also called PTK7 extracellular domain
T2 sequence: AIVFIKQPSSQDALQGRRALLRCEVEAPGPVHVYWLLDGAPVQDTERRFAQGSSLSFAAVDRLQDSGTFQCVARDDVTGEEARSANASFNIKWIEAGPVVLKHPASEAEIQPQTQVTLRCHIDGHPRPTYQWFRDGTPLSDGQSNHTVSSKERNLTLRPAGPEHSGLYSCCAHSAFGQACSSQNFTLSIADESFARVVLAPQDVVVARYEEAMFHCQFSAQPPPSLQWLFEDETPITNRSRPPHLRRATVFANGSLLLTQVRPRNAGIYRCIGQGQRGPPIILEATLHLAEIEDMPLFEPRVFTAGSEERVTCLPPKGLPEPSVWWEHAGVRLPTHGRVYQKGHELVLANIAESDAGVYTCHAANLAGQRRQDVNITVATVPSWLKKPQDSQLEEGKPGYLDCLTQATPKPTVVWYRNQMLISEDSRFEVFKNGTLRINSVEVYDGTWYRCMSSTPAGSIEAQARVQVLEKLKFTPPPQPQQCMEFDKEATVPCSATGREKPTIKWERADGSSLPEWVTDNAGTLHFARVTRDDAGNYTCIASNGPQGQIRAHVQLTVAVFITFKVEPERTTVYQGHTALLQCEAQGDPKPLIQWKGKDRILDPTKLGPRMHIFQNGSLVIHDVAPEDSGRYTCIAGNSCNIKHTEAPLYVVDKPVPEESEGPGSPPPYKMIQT

B1: anti-PTK7 human monoclonal antibody 12C6 (antibody, V domains shown)
VH: EVQLVQSGGGLVHPGGSLRLSCAGSGFTFSTYLMYWVRQAPGKTLEWVSAIGSGGDTYYADSVKGRFTISRDNAKNSLYLQMNSLRAEDMAVYYCARGLGYWGQGTLVTVSS
VL: not shown
notes: Human IgG kappa from a hybridoma
B2: anti-PTK7 human monoclonal antibody 7C8 (antibody, V domains shown)
VH: QVQLVESGGGVVQPGRSLRLSCAASGFTFSSYGMHWVRQAPGKGLEWVAVIWDDGSNKYYVDSVKGRFTISRDNSKNTLYLQMNSLRAEDTAVYYCARDDYYGSGSFNSYYGTDVWGQGTTVTVSS
VL: EIVLTQSPATLSLSPGERATLSCRASQSVSIYLAWYQQKPGQAPRLLIYDASNRATGIPARFSGSGSGTDFTLTISSLEPEDFAVYYCQQRSNWPPFTFGPGTKVDIK
notes: as for B1
B3: anti-PTK7 human monoclonal antibody 3G8 (antibody, V domains shown)
VH: QVQLVESGGGVVQPGRSLRLSCAASGFIFSNYAMHWVRQAPGKGLEWVAVISYDGNNKYYADSVKGRFTISRDNSKNTLYLQMNSLRAEDTAVYYCAREVWSIDNWGQGTLVTVSS
VL: DIQMTQSPSSLSASVGDRVTITCRASQGISSWLAWYQQKPEKAPKSLIYAASSLQSGVPSRFSGSGSGTDFTLTISSLQPEDFATYYCQQYNSYPRTFGQGTKVEIK
B4: anti-PTK7 human monoclonal antibody 12C6a (antibody, V domains shown)
VH: B1 VH
VL: B3 VL with R96Y, V104L
notes: Same heavy chain variable region as 12C6, different light chain; Human IgG kappa from a hybridoma
B5: anti-PTK7 human monoclonal antibody 4D5 (antibody, V domains shown)
VH: QVQLVESGGGVVQPGRSLRLSCAASGFTFSSYAFHWVRQAPGKGLEWVAVISYDGSIKYYADSVKGRFTISRDNSKNTLYLQMNSLRAEDTAVYYCARTYYFDYWGQGTLVTVSS
VL: EIVLTQSPDFQSVTPKEKVTITCRASQSIGSSLHWYQQKPDQSPKLLIKYASQSFSGVPSRFSGSGSGTDFTLTINSLEAEDAAAYYCHQSSSLPITFGQGTRLEIK

Legend:
[1] = target: T1, human PTK7, full length, on the cell …; experiment: cell-based or functional assay
[2] = target: T1, human PTK7, full length, on the cell …; experiment: flow cytometry (MFI) on Wilms' tumor cell line G-401
Procedure: The nephroblastoma Wilms' tumor cell line G-401 (ATCC Acc No. CRL-1441) was tested for binding of the HuMAb anti-PTK7 human monoclonal antibodies 12C6 and 7C8 at different concentrations. Binding of the anti-PTK7 human monoclonal antibodies was assessed by incubating 1×10⁵ cells with antibody at a starting concentration of 30 μg/ml and serially diluting the antibody at a 1:10 dilution. The cells were washed and binding was detected with a PE-labeled anti-human IgG Ab. Flow cytometric analyses were performed using a FACScan flow cytometry (Becton Dickinson, San Jose, Calif.). The anti-PTK7 monoclonal antibodies 12C6 and 7C8 bound to the nephroblastoma Wilms' tumor cell line in a concentration dependent manner, as measured by the mean fluorescent intensity (MFI) of staining. The EC₅₀ values for the anti-PTK7 monoclonal antibodies 12C6 and 7C8 was 4.0 nM and 3.4 nM, respectively.

[3] = target: T2, recombinant extracellular domain of PTK7; experiment: ELISA (legend of FIG. 15; members named in paragraph 547)
Procedure: The binding of anti-PTK7 antibodies was also assessed by standard ELISA to examine the specificity of binding for PTK7.
Recombinant extracellular domain of PTK7 was tested for binding against the anti-PTK7 human monoclonal antibodies 3G8, 4D5, 12C6 and 12C6a at different concentrations. Standard ELISA procedures were performed. The anti-PTK7 human monoclonal antibodies were added at a starting concentration of 10 μg/ml and serially diluted at a 1:2 dilution. Goat-anti-human IgG (kappa chain-specific) polyclonal antibody conjugated with horseradish peroxidase (HRP) was used as secondary antibody. Each of the anti-PTK7 human monoclonal antibodies 3G8, 4D5, 12C6 and 12C6a bound to PTK7.

[4] = target: T1, human PTK7, full length, on the cell …; experiment: flow cytometry (MFI) on cancer cell lines that express cell surface PTK7, antibody at 10 ug/ml
Procedure: Anti-PTK7 antibodies were tested for binding to a variety of cancer cell lines by flow cytometry.
Binding of the 3G8, 12C6a, 4D5 and 12C6 anti-PTK7 human monoclonal antibodies to a panel of cancer cell lines was assessed by incubating cancer cell lines with anti-PTK7 human monoclonal antibodies at a concentration of 10 μg/ml. The cancer cell lines that were tested were A-431 (ATCC Acc No. CRL-1555), Wilms tumor cells G-401 (ATCC Acc No. CRL-1441), Saos-2 (ATCC Acc No. HTB-85), SKOV-3 (ATCC Acc No. HTB-77), PC3 (ATCC Acc No. CRL-1435), DMS 114 (ATCC Acc No. CRL-2066), ACHN (ATCC Ace No. CRL-1611), LNCaP (ATCC Acc No. CRL-1740), DU 145 (ATCC Acc No. HTB-81), LoVo (ATCC Acc No. CCL-229) and MIA PaCa-2 (ATCC Acc No. CRL-1420). An isotype control antibody was used as a negative control. The cells were washed and binding was detected with a FITC-labeled anti-human IgG Ab. Flow cytometric analyses were performed using a FACScan flow cytometry (Becton Dickinson, San Jose, Calif.). The anti-PTK7 monoclonal antibodies 3G8, 12C6a, 4D5 and 12C6 bound to the cancer cell lines A-431, Wilms tumor cells G-401, Saos-2, SKOV-3, PC3, DMS 114, ACHN, LNCaP, DU 145, LoVo and MIA PaCa-2, as measured by the mean fluorescent intensity (MFI) of staining.

Row | Binder | EC50 of the decrease in 3H-thymidine incorporation, Hum-Zap internalization assay, A-431 cells [1] | EC50 of the decrease in 3H-thymidine incorporation, Hum-Zap internalization assay, PC3 tumor cells [1] | EC50 of the decrease in 3H-thymidine incorporation, Hum-Zap internalization assay, Wilms' tumor cells G-401 [1] | EC50 [2] | binding result [3] | binding result [4]
1 | B1 | 0.2 nM | 0.3 nM | 0.2 nM | 4 nM |  | 
2 | B2 | 0.2 nM | 0.3 nM | 0.2 nM | 3.4 nM |  | 
3 | B3 |  |  | 0.6 nM |  |  | 
4 | B4 |  |  |  |  | binds | binds
5 | B5 |  |  | 0.3 nM |  |  | 
